Drawing on publication PMC3994028, this text covers PLA fluorescence intensity in the actin-positive area 30 min after BBS, percent of untreated growth cones (% of untreated) for one substance.

In this test the target is non-muscle myosin IIB (NM IIB) (rat (endogenous in hippocampal neurons of Sprague-Dawley rats and in PC12)) (UniProt Q9JLT0). Description: proximity ligation; Duolink in situ PLA on fixed, permeabilised cultured hippocampal neurons (growth cones); primary antibodies against βPIX (or kalirin) and NM IIB, or βPIX and GIT; with or without 50 µM BBS for 15 or 30 min.
Sequence of UniProt Q9JLT0 (Q9JLT0 whole entry): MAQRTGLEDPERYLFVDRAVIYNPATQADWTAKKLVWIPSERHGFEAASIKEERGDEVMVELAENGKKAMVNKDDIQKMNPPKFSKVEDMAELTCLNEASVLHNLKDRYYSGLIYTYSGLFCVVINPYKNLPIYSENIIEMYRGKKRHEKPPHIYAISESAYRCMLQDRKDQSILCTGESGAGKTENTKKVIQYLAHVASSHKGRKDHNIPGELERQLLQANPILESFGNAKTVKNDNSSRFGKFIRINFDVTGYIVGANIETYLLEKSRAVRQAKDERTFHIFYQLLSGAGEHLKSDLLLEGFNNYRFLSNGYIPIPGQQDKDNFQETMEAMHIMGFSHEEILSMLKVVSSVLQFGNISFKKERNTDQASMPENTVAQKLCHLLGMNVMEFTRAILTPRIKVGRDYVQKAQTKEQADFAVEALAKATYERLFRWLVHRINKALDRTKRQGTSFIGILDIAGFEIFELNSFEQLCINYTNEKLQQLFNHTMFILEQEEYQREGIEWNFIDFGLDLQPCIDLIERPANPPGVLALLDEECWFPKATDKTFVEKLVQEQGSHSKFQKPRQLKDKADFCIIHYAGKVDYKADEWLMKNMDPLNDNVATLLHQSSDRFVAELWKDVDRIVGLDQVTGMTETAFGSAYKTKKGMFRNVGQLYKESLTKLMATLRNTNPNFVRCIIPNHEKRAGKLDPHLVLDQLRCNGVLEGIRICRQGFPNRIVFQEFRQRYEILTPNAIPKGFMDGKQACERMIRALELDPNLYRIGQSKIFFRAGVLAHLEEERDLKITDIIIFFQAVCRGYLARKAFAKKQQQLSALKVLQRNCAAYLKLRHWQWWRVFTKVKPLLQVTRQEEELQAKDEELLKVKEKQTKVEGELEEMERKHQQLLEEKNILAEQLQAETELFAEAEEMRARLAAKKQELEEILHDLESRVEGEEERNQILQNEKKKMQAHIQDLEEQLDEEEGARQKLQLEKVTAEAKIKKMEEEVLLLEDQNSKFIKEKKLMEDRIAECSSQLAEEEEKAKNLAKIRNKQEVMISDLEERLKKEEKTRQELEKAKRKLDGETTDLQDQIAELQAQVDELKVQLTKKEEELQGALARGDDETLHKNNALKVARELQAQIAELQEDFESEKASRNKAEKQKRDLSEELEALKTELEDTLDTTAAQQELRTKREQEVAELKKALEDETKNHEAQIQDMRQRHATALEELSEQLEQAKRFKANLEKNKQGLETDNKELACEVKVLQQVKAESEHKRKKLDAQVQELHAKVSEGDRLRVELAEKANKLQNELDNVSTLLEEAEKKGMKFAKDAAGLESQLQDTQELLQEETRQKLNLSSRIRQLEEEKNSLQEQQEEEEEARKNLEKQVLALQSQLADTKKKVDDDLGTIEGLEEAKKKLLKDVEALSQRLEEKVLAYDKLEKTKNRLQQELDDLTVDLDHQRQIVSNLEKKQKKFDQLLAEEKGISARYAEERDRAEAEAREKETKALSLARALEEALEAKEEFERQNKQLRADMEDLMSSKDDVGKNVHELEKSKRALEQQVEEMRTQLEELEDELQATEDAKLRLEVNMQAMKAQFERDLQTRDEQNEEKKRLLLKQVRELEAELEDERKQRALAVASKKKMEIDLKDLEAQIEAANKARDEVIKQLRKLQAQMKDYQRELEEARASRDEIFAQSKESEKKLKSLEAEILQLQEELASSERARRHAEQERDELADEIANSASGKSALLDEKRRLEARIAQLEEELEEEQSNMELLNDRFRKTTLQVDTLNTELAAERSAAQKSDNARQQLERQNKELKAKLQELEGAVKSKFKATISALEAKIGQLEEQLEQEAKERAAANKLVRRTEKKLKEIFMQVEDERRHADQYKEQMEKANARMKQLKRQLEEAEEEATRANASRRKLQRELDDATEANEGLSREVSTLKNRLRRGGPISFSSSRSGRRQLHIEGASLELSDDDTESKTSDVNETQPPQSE

Take “βPIX (endogenous, hippocampal neurons) (from UniProt O55043 1-646) (natural protein)”: the PLA fluorescence intensity in the actin-positive area 30 min after BBS, percent of untreated growth cones (% of untreated) came to 51.
